Measurements as given in patent US20250101126A1.
Where a chain is given by its changes, count along the chain named. Values belong to the binder of their own block, whether it stands above or below them.

Columns and labels:
[1] = target: Tn-glycosylated MUC4 on cells (MUC4-Tn; COSMC-KO cells, cancer tissue) (UniProt Q99102); test: flow cytometry on T3M4 COSMC-KO (T3M4-M) cells
[2] = target: MUC4-Tn glycopeptide … (SEQ ID NO:154) with O-linked GalNAc on the serine and threonine at positions 12 and 13; test: BLI (Octet), MUC4 glycopeptide on biosensor
Sequence of MUC4-Tn glycopeptide … (SEQ ID NO:154) with O-linked GalNAc on the serine and threonine at positions 12 and 13 (peptide, as listed by the source): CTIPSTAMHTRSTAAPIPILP

B2: 2D5-HV1-3B/KV2B (antibody, V domains shown)
VH: QVQLVQSGAEVKKPGASVKVSCKASGYTFTDHAIHWVRQAPGQRLEWLGYISPGNDDIQYSQKFKGRVTITADKSASTAYMELSSLRSEDTAVYYCKRSMANSFDYWGQGTLVTVSS
VL: DIVMTQTPLSLPVTPGEPASISCRSSQSVLYSSDEKTYLAWYLQKPGQSPQLLIYWASTRESGVPDRFSGSGSGTDFTLKISRVEAEDVGVYYCHQYLSSYTFGQGTKLEIK
- EC50 [1]: 0.0163 µg/mL
- Kd [2]: 7.7 nM

B4: 2D5-HV1-69-A/KV2A (antibody, V domains shown)
VH: B2 VH with A16S, R44G, S61N, Q62A, V68A, I70L, A76T, Y95F
VL: B2 VL with M4L, R24K, E35Q, T37N
- EC50 [1]: 0.0179 µg/mL
- Kd [2]: 4.1 nM

Other lines, results leading:

- EC50 [1]: 0.0194 µg/mL
- Kd [2]: 5.3 nM
B1: 2D5-HV1-69-C/KV2B (antibody, V domains shown)
VH: B2 VH with A16S, T30S, R44G, D56A, Q59N, S61A, K65Q, A76T
VL: B2 VL

- EC50 [1]: 0.0248 µg/mL
- Kd [2]: 3.3 nM
B3: 2D5-HV1-69-B/KV2B (antibody, V domains shown)
VH: B2 VH with A16S, R44G, S61N, A76T
VL: B2 VL
